Measured values: US20190071499A1 (published 2019)

B1: 50E11 (antibody, human IgG1, kappa, V domains shown)
VH: QVQLVQSGAEMKKPGSSVKVSCKDFGGTFSVYGVNWVRQAPGQGLEWMGGLIPVIGPANYAQKFQGRITITADESTSTAYMELSSLRFDDTAIYYCVRDDNEYWGQGTLVTVSS
VL: EMVLTQSPATLSLSPGERATLSCRASQTVSTFLAWYQQKPGQVPRLLVYDISSRANGTPARFSGGGSGTDFTLTISSLELEDFAVYYCQWRSNWPPSLTFGGGTRVEIKR
B2: 13B11 (antibody, human IgG1, kappa, V domains shown)
VH: DVQLLQSGGGLIQPGGSLRLSCAASGFTFKDYAMSWVRQAPGKGLEWVSVISRSGNIVDYVDSVKGRFTVSRDNSNNTLFLQMDGLRADDTAIYYCAKPKDMIVVVPAGFDSWGQGTLVSVSS
VL: DIQMTQFPSTLSASVGDSVTITCRASQSISAWLAWYQQKPGKAPKLLIYKGSRLENGVPSRFSGSGSGTEFTLTIGSLQPDDFATYYCQQYKTWTFGQGTKVEIKR
notes: human-derived IgG1, kappa; also called MAB 13B11; hMAB 13B11
B3: 12H5 (antibody, human IgG1, kappa, V domains shown)
VH: QVQLIQSGPEVKRPGASVKVSCKASENTFDTHYINWVRQAPGQGLTWLGWLNPTTGKTGFPQKFKGRVILTSDTSLNTAYMEVSRLTSEDTAVYFCARVLKLSDEYNYGFDVWGQGTTVIVSS
VL: DIQVTQSPSSLSASIGDRVTITCRASQNILTFINWYQHKPGKAPKLLIYAASVLQNEVPSRFSGSGSGTDFTLTITSLQPDDFGTYYCQQTYLTPQCSFGQGTKVEIKR
B4: 8H1 (antibody, human IgG1, kappa, V domains shown)
VH: QVQLVQSGAEVKKPGASVKVSCKASGQTFTSDDINWVRQAPGQGLEWMGWRNPNTQDTGYAQKFHGRLTLTSNSSISTSYLELSGLRSEDTAVYYCARAGTSTLTGHYFALGVWGQGTTVIVSS
VL: DIQLTQSPSSLSASVGDRVTITCQATQDISKYLNWYQQKPGKVPKLLIYETSNLEVGVPSRFSGSGSGTHFTLTISSLQAEDFATYYCQQYENFPFTFGGGTKVEIKR
B5: 26B9 (antibody, human IgG1, kappa, V domains shown)
VH: QILLQESGPGLVKPTETLSLTCSVSGDSISDSSHYWAWIRQPPGKGPEWIGSVYFSSMTHYNPSLKSRVSISVDKPKNQFSLKVTSVTVADTATYYCARQALARVGAMNWFDPWGQGSLVTVSS
VL: DIIMTQSPDSLPVSLGEGVTINCKSSQSVFFTSSNKSCLAWYQQKPGKSPKLLIYWASTRQSGVPDRFRGSGSGTDFSLTITSLQAEDVAVYFCQQCQTSPPTFGGGTRLEIKR
notes: human-derived IgG1, kappa; also called MAB 26B9; hMAB 26B9
B6: 25C3 (antibody, human IgG1, kappa, V domains shown)
VH: EMQLMESGGGLVQPGGSLRLSCVASGFTFKSFAMSWVRQAPGKGLEWVASVGSQGGSKYYAPSVKGRFSISRDNSNNTLYVQMNSLGVEDTAFYYCVKETDAVATMDALDMWGQGTLVIVST
VL: DIRVTQSPSSLSASVGDRVSISCQTSQSVNIYLNWYQQRPGKGPQLLISAASTLQSGVPSRFSGSGSGTDFILTIISLQPEDSASYYCQQGYITPYTFGQGTKVEIKR
notes: human-derived IgG1, kappa; also called MAB 25C3; hMAB 25C3

What was measured:
human IFN-α21 [1] = biological target: T1, human IFN-α21 (human, UniProt P01568 24-189); assay: cell-based or functional assay
human IFN-α5 = human IFN-α5 (human, UniProt P01569 24-189, limits assumed); assay: cell-based or functional assay
human IFN-α10 [2] = biological target: T2, human IFN-α10 (human, UniProt P01566 24-189); assay: cell-based or functional assay
human IFN-α14 [3] = biological target: T3, human IFN-α14 (human, UniProt P01570 24-189); assay: cell-based or functional assay
human IFN-α6 = human IFN-α6 (human, UniProt P05013 24-189, limits assumed); assay: cell-based or functional assay
human IFN-α1 [4] = biological target: T4, human IFN-α1 (human, UniProt P0DY56 24-189); assay: cell-based or functional assay
human IFN-α17 = human IFN-α17 (human, UniProt P01571 24-189); assay: cell-based or functional assay
human IFN-α4 = human IFN-α4 (human, UniProt P05014 24-189); assay: cell-based or functional assay
human IFN-α16 [5] = biological target: T5, human IFN-α16 (human, UniProt P05015 24-189); assay: cell-based or functional assay
human IFN-ω = human IFN-ω (human, UniProt P05000 24-195, limits assumed); assay: cell-based or functional assay
human IFN-α7 = human IFN-α7 (human, UniProt P01567 24-189); assay: cell-based or functional assay
[6] = biological target: T6, human Fc fusion mouse IFN-α4 (mouse, UniProt P07351 25-186); assay: ELISA, human Fc fusion mouse IFN-α
T6 construct: bought (SinoBiological); also called murine IFN-α4; not shown: human Fc
T6 sequence (looked up): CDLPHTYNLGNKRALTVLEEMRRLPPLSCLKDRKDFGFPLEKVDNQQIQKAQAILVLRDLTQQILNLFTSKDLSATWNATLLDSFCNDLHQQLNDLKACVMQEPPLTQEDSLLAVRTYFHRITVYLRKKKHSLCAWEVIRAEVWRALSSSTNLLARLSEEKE

[7] = biological target: T7, human Fc fusion mouse IFN-α2 (mouse, UniProt P01573 24-190); assay: ELISA, human Fc fusion mouse IFN-α
T7 construct: bought (SinoBiological); also called murine IFN-α2; murine INFA2; not shown: human Fc
T7 sequence (looked up): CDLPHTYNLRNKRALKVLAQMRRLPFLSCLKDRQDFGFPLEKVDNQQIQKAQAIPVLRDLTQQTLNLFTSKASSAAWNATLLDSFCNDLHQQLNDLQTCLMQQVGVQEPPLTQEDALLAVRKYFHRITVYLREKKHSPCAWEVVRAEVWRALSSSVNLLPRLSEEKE

g1mIFN-α9 = biological target: T8, g1mIFN-α9 (mouse, UniProt P09235 24-190); assay: LIPS
T8 construct: also called murine IFN-α9 (Gaussia luciferase fusion); not shown: Gaussia luciferase fusion partner
T8 sequence (looked up): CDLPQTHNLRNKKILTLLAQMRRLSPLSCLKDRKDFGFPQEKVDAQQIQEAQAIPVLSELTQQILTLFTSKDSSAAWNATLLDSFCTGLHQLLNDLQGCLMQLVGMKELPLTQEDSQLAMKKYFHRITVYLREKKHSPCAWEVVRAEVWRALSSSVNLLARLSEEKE

g1mIFN-α1 = biological target: T9, g1mIFN-α1 (mouse, UniProt P01572 24-189); assay: LIPS
T9 construct: also called murine IFN-α1 (Gaussia luciferase fusion); not shown: Gaussia luciferase fusion partner
T9 sequence (looked up): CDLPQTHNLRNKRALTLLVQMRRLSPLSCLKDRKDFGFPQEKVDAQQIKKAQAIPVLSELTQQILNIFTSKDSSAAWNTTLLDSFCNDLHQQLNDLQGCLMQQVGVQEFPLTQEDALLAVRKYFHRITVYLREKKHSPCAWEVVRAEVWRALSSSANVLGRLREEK

human IFN-α14 [8] = biological target: T3, human IFN-α14; assay: ELISA or LIPS (Table 7 summary)
human IFN-α1 [9] = biological target: T4, human IFN-α1; assay: ELISA or LIPS (Table 7 summary)
human IFN-α16 [10] = biological target: T5, human IFN-α16; assay: ELISA or LIPS (Table 7 summary)
[11] = biological target: T10, peptide 23 of human IFN-αW (IFN-ω) (human); assay: peptide microarray, 18mer peptides of human IFN-αW
T10 construct: spotted on a microarray through a linker
T10 peptide: TGLHQQLQHLETCLLQVV

[12] = biological target: T11, peptide 22 of human IFN-α2 (human); assay: peptide microarray, 18mer peptides of human IFN-α2
T11 construct: spotted on a microarray through a linker
T11 peptide: YTELYQQLNDLEACVIQG

human IFN-α21 [13] = biological target: T1, human IFN-α21; assay: ELISA or LIPS (Table 7 summary)
human IFN-α10 [14] = biological target: T2, human IFN-α10; assay: ELISA or LIPS (Table 7 summary)

Sequence of human IFN-α17 (P01571 24-189 limits assumed): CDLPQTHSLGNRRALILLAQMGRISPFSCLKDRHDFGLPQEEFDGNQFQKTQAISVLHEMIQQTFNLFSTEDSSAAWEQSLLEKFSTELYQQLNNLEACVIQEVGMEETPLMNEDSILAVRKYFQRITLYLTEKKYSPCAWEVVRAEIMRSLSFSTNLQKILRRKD
Sequence of human IFN-ω (P05000 24-195 limits assumed): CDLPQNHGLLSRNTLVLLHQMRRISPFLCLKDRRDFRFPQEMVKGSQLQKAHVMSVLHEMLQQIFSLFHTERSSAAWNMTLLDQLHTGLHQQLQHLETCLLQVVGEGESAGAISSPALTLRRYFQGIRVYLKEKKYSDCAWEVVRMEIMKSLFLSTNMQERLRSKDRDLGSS
T3 sequence (P01570 24-189 limits assumed): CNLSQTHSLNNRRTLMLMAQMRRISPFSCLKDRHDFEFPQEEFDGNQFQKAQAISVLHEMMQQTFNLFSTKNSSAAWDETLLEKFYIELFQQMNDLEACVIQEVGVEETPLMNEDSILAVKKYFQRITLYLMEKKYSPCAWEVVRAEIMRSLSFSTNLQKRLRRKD
T2 sequence (P01566 24-189 limits assumed): as the sequence (P01571 24-189 limits assumed) above, with A19G, G37R, L38I, T51A, N95D, M106V, T132I, K134R, I161R counted along it
T4 sequence (P0DY56 entry or part of it limits assumed): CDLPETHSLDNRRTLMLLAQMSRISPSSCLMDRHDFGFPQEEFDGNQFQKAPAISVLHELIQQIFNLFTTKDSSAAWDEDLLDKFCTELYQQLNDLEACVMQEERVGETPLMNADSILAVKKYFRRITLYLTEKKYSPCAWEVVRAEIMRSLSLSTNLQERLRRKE
Sequence of human IFN-α4 (P05014 24-189 limits assumed): as the sequence (P01571 24-189 limits assumed) above, with P26H, L38F, Q40E, N46H, T51A, N95D, M106V, I161R counted along it
Sequence of human IFN-α7 (P01567 24-189 limits assumed): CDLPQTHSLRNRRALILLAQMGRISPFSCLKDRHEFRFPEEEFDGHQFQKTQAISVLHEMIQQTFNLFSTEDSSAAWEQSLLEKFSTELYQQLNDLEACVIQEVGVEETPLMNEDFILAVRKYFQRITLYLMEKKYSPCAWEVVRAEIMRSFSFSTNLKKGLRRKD
T1 sequence (P01568 24-189 limits assumed): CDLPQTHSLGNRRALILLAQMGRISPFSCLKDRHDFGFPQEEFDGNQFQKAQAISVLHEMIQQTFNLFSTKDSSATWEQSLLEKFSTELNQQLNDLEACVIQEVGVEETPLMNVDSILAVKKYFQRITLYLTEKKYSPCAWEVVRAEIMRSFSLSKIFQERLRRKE
T5 sequence (P05015 24-189 limits assumed): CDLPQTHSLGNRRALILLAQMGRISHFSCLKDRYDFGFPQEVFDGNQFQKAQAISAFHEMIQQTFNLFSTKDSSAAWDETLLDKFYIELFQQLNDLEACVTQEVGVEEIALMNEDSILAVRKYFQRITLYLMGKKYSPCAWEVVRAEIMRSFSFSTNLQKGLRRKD
Sequence of human IFN-α5 (P01569 24-189 limits assumed): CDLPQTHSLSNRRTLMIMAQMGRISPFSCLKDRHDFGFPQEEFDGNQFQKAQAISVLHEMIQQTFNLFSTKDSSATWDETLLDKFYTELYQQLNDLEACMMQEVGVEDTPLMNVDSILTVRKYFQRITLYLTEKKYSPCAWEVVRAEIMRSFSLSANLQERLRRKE
Sequence of human IFN-α6 (P05013 24-189 limits assumed): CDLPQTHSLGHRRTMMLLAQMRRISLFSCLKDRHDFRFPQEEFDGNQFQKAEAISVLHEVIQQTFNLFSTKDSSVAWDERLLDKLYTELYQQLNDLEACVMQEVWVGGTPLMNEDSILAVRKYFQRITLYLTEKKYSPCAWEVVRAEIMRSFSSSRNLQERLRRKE

Row | Binder | IC 50 (ng/ml), ISRE dual luciferase reporter assay (human IFN-α21 [1]) [ng/mL] | IC 50 (ng/ml), ISRE dual luciferase reporter assay (human IFN-α5) [ng/mL] | IC 50 (ng/ml), ISRE dual luciferase reporter assay (human IFN-α10 [2]) [ng/mL] | IC 50 (ng/ml), ISRE dual luciferase reporter assay (human IFN-α14 [3]) [ng/mL] | IC 50 (ng/ml), ISRE dual luciferase reporter assay (human IFN-α6) [ng/mL] | IC 50 (ng/ml), ISRE dual luciferase reporter assay (human IFN-α1 [4]) [ng/mL] | IC 50 (ng/ml), ISRE dual luciferase reporter assay (human IFN-α17) [ng/mL] | IC 50 (ng/ml), ISRE dual luciferase reporter assay (human IFN-α4) [ng/mL] | IC 50 (ng/ml), ISRE dual luciferase reporter assay (human IFN-α16 [5]) [ng/mL] | IC 50 (ng/ml), ISRE dual luciferase reporter assay (human IFN-ω) [ng/mL] | IC 50 (ng/ml), ISRE dual luciferase reporter assay (human IFN-α7) [ng/mL] | binding result [6] | binding result [7] | binding result (g1mIFN-α9) | binding result (g1mIFN-α1) | binding result (human IFN-α1 [9]) | binding result (human IFN-α16 [10]) | other results
1 | B1 | 3.05 | 0.91 | 3.63 | 9.2 | 39.3 | 97.4 | 2.31 | 20.2 | 2.35 | 113 | 1.9 | – | – | – | – | – | – | –
2 | B2 | – | – | – | – | – | – | – | – | – | – | – | no binding | no binding | no binding | no binding | binds | binds | binding result (human IFN-α14 [8]): binds
3 | B3 | 13 | 22.6 | 0.66 | 2.15 | 3.55 | 51.3 | 0.75 | 0.48 | 33 | – | 0.64 | – | – | – | – | – | – | –
4 | B4 | 2.78 | 1.78 | 2.69 | 785 | 77.7 | 29 | 2.11 | 5.43 | 1.86 | 2.13 | 0.9 | – | – | – | – | – | – | –
5 | B5 | 4.65 | 3.74 | 1.84 | 2.01 | 3.16 | 8.6 | 2.22 | 2.07 | 4010 | 0.5 | 1.57 | no binding | no binding | no binding | no binding | – | – | binding result [11]: binds; binding result [12]: binds
6 | B6 | – | – | – | – | – | – | – | – | – | – | – | – | – | no binding | no binding | binds | binds | binding result (human IFN-α21 [13]): binds; binding result (human IFN-α10 [14]): binds
